Test results taken from patent US20140056903A1 (Regeneron, published 2014).

T1: human GFRα1 expressed with a C-terminal human Fc tag and a hexahistidine tag (human, UniProt P56159 25-429, limits assumed)
T1 construct: bought protein; also called hGFRα1-hFc-6His; hGFRα1-hFc-6his
T1 sequence (looked up): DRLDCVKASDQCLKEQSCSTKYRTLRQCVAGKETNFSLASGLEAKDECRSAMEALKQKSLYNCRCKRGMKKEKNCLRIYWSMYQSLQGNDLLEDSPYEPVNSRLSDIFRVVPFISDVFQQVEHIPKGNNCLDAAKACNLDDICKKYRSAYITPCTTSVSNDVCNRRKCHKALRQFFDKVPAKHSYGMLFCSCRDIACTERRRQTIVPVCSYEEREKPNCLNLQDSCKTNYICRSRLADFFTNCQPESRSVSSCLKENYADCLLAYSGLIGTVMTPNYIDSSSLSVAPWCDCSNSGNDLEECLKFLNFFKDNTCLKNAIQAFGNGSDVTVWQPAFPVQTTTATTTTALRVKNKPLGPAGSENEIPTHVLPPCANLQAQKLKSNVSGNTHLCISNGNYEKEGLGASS

T2: human GFRα3 expressed with a C-terminal mFc tag (human)
T2 construct: also called hGFRα3-mFc
T2 chain: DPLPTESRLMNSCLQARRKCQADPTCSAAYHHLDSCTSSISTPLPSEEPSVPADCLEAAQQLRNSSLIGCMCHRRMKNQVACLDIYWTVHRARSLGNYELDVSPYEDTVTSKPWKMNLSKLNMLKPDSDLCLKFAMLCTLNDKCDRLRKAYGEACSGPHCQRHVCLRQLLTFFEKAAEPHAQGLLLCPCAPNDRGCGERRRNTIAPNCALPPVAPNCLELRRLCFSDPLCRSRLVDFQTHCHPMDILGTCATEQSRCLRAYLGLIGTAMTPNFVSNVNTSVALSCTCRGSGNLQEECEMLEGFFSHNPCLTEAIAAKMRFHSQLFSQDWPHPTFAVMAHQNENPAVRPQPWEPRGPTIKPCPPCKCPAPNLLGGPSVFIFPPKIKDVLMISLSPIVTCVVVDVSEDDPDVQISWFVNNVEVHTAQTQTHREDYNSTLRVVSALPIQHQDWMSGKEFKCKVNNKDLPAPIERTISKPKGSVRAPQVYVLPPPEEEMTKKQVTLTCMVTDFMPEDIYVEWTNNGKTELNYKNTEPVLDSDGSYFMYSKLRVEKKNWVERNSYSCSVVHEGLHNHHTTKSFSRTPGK


Assays:
[1] = target: T3, human GFRα3 expressed with a C-terminal myc-myc-hexahistidine tag (human, UniProt O60609 32-374, biotinylated (sites not given) in ELISA format 2 and in the Octet cross-competition; not in SPR); test: blocking ELISA 2, biotin-hGFRα3-mmH to coated hARTEMIN-mmH + hRET-10His; IC50 cell 'enhancer'
T3 construct: also called hGFRα3-mmh; hGFRα3-mmH
T3 sequence (O60609 other isoform, or with tags, fused parts or gaps limits assumed): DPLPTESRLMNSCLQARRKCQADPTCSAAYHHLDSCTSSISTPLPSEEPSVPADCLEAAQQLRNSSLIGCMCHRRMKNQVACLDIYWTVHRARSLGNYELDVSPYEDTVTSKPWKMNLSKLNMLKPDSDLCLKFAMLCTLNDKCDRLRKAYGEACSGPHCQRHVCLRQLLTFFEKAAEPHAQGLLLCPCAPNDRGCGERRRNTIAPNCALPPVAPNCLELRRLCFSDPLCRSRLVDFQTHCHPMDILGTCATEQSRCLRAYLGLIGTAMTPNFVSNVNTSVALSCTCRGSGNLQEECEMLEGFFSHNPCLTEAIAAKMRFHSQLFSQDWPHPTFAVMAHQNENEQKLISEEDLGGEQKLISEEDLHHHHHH
Procedure: The equilibrated sample solutions were then transferred to the hARTEMIN-mmH-coated plate. […] Absorbance was recorded at 450 nm on a Victor X5 plate reader (Perkin Elmer) to determine the amount of free hGFRα3-hFc in the pre-equilibrated hGFRα3-hFc-antibody solutions that was able to bind to the plate coated with hARTEMIN-mmH. IC₅₀ values, defined as the concentration of antibody required to reduce the signal from a constant concentration of hGFRα3-hFc by 50%, were calculated from the data using Prism software from GraphPad. The absorbance measured at the constant amount of 120 pM hGFRα3-hFc in the absence of anti-GFRα3 antibody is defined as 0% blocking and the absorbance with no added hGFRα3-hFc is defined as 100% blocking. The observed absorbance in the wells containing the highest antibody concentration was used to calculate the maximum blocking percent shown in the table.
In the second ELISA format, the plates, samples and data were processed similarly as for the first format except both hARTEMIN-mmH and human RET with a C-terminal 10 histidine tag (hRET-10His; R&D Systems, #1168-CR/CF) were coated for the blocking ELISA experiment. The 96-well microtiter plates were coated with a mixture of 1.2 ug/ml hARTEMIN-mmH and 6.9 ug/ml hRET-10His proteins in PBS overnight at 4° C. and then blocked with a solution of 0.5% (w/v) BSA. A constant amount of biotinylated human GFRα3 with a C-terminal myc-myc-hexahistidine tag (biotin-hGFRα3-mmH; SEQ ID:370) at 1 nM was pre-mixed with varied amounts of anti-GFRα3 antibodies, ranging from 0 to ˜100 nM in serial dilutions, followed by a 1 hour incubation at RT to allow antibody-biotin-hGFRα3-mmH binding to reach equilibrium. The equilibrated samples were then transferred to the coated plate. After 1 hour of binding, the plate was washed, then the bound biotin-hGFRα3-mmH was detected using HRP conjugated streptavidin (Pierce, #N200), and colorimetric signals were developed using TMB HRP substrates.

[2] = target: T1, human GFRα1 expressed with a C-terminal …; test: BLI Octet, antigen captured on anti-hFc tips
Procedure: The ability of anti-GFRα3 antibodies to bind to GDNF-family receptors was assessed using an Octet Red biosensor (Fortebio, Inc.). Antibodies were tested for binding to either human GFRα1 expressed with a C-terminal human Fc tag and a hexahistidine tag (hGFRα1-hFc-6His, R&D Systems #714-GR), human GFRα1 expressed with only a C-terminal human Fc tag (hGFRα1-hFc; SEQ ID: 376), human GFRα2 expressed with a C-terminal human Fc tag and a hexahistidine tag (hGFRα2-hFc-6His, R&D Systems #613-FR), human GFRα3 expressed with a C-terminal human Fc tag (hGFRα3-hFc, SEQ ID:371), or an irrelevant human Fc tagged protein. Antigens were captured onto anti-human Fc sensor tips from 10 ug/mL solutions for 5 minutes. The coated sensor tips were then blocked with a 100 ug/mL solution of irrelevant human Fc antibodies for 5 minutes. Blocked sensor tips were then submerged into wells containing […] of each anti-GFRα3 antibody or buffer alone for 10 minutes. The experiment was performed at 25° C. with a flow rate of 1000 rpm using HBST+BSA buffer (10 mM HEPES, 150 mM NaCl, 3 mM EDTA, 0.05% w/v Surfactant P20, 0.1 mg/mL BSA, pH 7.4). The binding response (measured in units of nm) at each step of the experiment was monitored and recorded.

[3] = target: T2, human GFRα3 expressed with a C-terminal …; test: SPR, Ab captured, 25C; 25° C.

| Binder | % max blocking [1] | binding result [2] | koff [3] |
| --- | --- | --- | --- |
| H4H2291S (antibody, human IgG4, V domains shown, human IgG4 Fc (H4H)) VH: EVQLVESGGGLVQPGESLRLSCAASGFTFSNYAMSWVRQAPGKGLEWVSVISGSGGSTYYADSVKGRFTMSRDNSKNTLYLQMNSLRAEDTAVYYCAKPPSRAARYFNYGMDVWGQGTTVTVSS VL: AIRMTQSPSSVSASVGDRVTITCRASQGISSWLAWYQQKPGKAPKLLIYAASSLQSGVPSRFSGSGSGTDFTLTISSLQPEDFATYYCQQANSFPFTFGGGTKVEIK | 28% |  |  |
| H4H2295S (antibody, human IgG4, V domains shown, human IgG4 Fc (H4H)) VH: EVQLVESGGGLVQAGGSLRLSCVASGFTFSSYAMSWVRQAPGKGLEWVSAISGSGGSTYSADSVKGRFTISRDNSKNTLYLQMNSLRAEDTAVYYCTKPSSYSSSNFYYGMDVWGQGTTVTVSS VL: DIQMTQSPSSVSASVGDRVTITCRASQGISSWLAWYQQKPGKAPKLLIYTASSLQSGVPSRFSGSGSRTDFTLTISSLQPEDFATYYCQQTNSLPLTFGPGTKVEIK | 44% |  |  |
| H4H2296S (antibody, human IgG4, V domains shown, human IgG4 Fc (H4H)) VH: not shown VL: DIVMTQSPSSVSASVGDRVTITCRASQGISSWLAWYQQKPGKAPKLLIYAASSLRSGVPSRFSGSGSGTDFTLTITSLQPEDFATYYCQHTNSFPFTFGPGTKVEIK | 91% |  |  |
| H4H2294S (antibody, human IgG4, V domains shown, human IgG4 Fc (H4H)) VH: EVQLVESGGGLVQPGGSLRLSCAASGFTFSSYAMSWVRQAPGKGLEWVSVISGSGGSTYYADAVKGRFTISRDNSKHTLYLQMNSLRAEDTAVYYCTKPSSYSSSNFYYGMDVWGQGSTVTVSS VL: DIQLTQSPSSVSASVGDRVTITCRASQGISSWLAWYQQKPGKAPKLLIYAASSLQSGVPSRFSGSGSGTDFTLTISSLQPEDFATYYCQQTNSFPFPFGPGTKVDIK |  | no binding (tested: 100 ug/mL) |  |
| H4H2355S (antibody, human IgG4, V domains shown, human IgG4 Fc (H4H)) VH: EVQLVESGGGLVQPGGSLRLSCAASGFTFSSYAMSWVRQVPGKGLEWVSAISGSGDNTYNAESVKGRFTISRDNSKNMLYLQMNSLRAEDTAVYYCAKTKFSSSLLFDYWGQGTLVTVSS VL: not shown | 95% |  |  |
| H4H2342P (antibody, human IgG4, V domains shown, human IgG4 Fc (H4H)) VH: EVQLLESGGGLVQPGGSLRLSCAASGFTFSTYAMSWVRQAPGKGLEWVSAIRGNGVNTYYGDSMKGRFTISRDNSKDTLYLQMNSLRAEDTAVYYCAKNKWELLVFEYWGQGTLVTVSS VL: DIQMTQSPSSLSASVGDRVTITCRASQDISNYLAWYQQKPGKVPKLLIYAASTLQSGVPFRFSGSGSGTDFTLTISSLQPEDVATYYCQKYNSAPPFGPGTKVDIK |  | no binding (tested: 100 ug/mL) |  |
| H4H2352S (antibody, human IgG4, V domains shown, human IgG4 Fc (H4H); also called H4H2352S-1) VH: EVQLVQSGAEVKKPGASVKVSCKASGYTFTNYGITWVRQAPGQGLEWMGWISAYNGNTGYAQKFQGRVTMTTDTSTSTAYMELRSLRSDDTAVYYCAREDYDFWRAFDIWGQGTMVTVSS VL: EIVLTQSPGTLSLSPGERATLSCRASQSVSSTYLAWLQQKPGQAPRLLIYGASSRATGIPDRFSGSGSGTDFTLTINRLEPEDFAVYYCQQYAYSPYTFGQGTKLEIK |  | no binding (tested: 100 ug/mL) |  |
| H4H2236N3 (antibody, human IgG4, V domains shown, human IgG4 Fc (H4H)) VH: EVQLLESGGNLVQPGGSLRLSCAASGFTFSSYAMTWVRQAPGKGLEWVSTISGSGTSTYYADSVKGRFTISRDNSRDTVFLQMNSLRAEDTAVYYCSKPSALRFLHWLAMDVWGQGTLVTVSS VL: DIQMTQSPSSLSAFVGDRVTITCRASQDIRNYLDWFQQKPGKAPKSLIYAASNLQSGVPSRFGGSGSGTDFTLTINSLQPEDFVTYYCQQYNSYPPTFGGGTKVEIK | 68% |  |  |
| H4H2243N2 (antibody, human IgG4, V domains shown, human IgG4 Fc (H4H)) VH: QVQLVQSGAEVKKPGASVKVSCKASGYTFTSYGIIWVRQAPGQGLEWMGWISGYNGNTNYAQNLQGRVTMTTDTSTTTAYMELRSLRSDDTAVYYCARWGIATRPYYYYGMDVWGQGTTVTVSS VL: DIQMTQSPSSLSASVGDRVTITCRASQDITNYLAWFQQKPGKAPKSLIYAASSLQSGVPSKFSGSGSGTDFTLTISSLQPEDFATYYCQQYNSYPPTFGPGTKVDIK |  | no binding (tested: 100 ug/mL) |  |
| H4H2292S (antibody, human IgG4, V domains shown, human IgG4 Fc (H4H)) VH: EVQLVESGGGVVQPGRSLRLSCAASGFTFSSYGMHWVRQAPGKGLEWVSFIWYDGSNKYYADSVKGRFTISRDNSKNTLYLQMNSLTAEDTAVYYCARRGILTGTTAFDIWGQGTMVTVSS VL: DIQMTQSPSSLSASVGDRVTITCRASQSISSYLNWYQQKPGKAPKLLIYAASSLQSGVPSRFSGSGSGTDFTLTIRSLIPEDFATYYCQQTYNTPFTFGPGTKVEIK |  | no binding (tested: 100 ug/mL) | ≤ 1e-06 s⁻¹ |
